Assay results: the supplement of paper PMC9112550, “Optimization of the antimicrobial peptide Bac7 by deep mutational scanning” (BMC Biology, 2022)

Tested on: Escherichia coli TOP10
Experiment: shrunken log2 fold change of peptide-encoding DNA abundance (4.5 h post-induction vs induction); higher = less antimicrobial activity (less host growth inhibition)
Details: time post-induction: 4.5 h; library: site-saturation at positions 5, 18, 19, 20
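Note: peptides expressed intracellularly from a pBAD plasmid library in pooled LB shake-flask culture, induced with 0.3% L-arabinose, DNA abundance read by NGS, three biological replicates, DESeq2 with apeglm shrinkage.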

| Sequence | shrunken log2 fold change |
| --- | --- |
| RRIRSRPPRLPRPRPRPNQCPRP | -0.215 |
| RRIRSRPPRLPRPRPRPNQPPRP | 0.0618 |
| RRIRSRPPRLPRPRPRPNRYPRP | -0.296 |
| RRIRSRPPRLPRPRPRPNTFPRP | -0.0296 |
| RRIRSRPPRLPRPRPRPNVRPRP | -0.0771 |
| RRIRSRPPRLPRPRPRPNVSPRP | -0.0656 |
| RRIRSRPPRLPRPRPRPNWDPRP | -0.315 |
| RRIRSRPPRLPRPRPRPNWNPRP | -0.453 |
| RRIRSRPPRLPRPRPRPNYPPRP | -0.195 |
| RRIRSRPPRLPRPRPRPNYWPRP | -0.143 |
| RRIRSRPPRLPRPRPRPPAYPRP | -0.0776 |
| RRIRSRPPRLPRPRPRPPCCPRP | -0.107 |
| RRIRSRPPRLPRPRPRPPDHPRP | 0.202 |
| RRIRSRPPRLPRPRPRPPERPRP | 0.0652 |
| RRIRSRPPRLPRPRPRPPFPPRP | 0.256 |
| RRIRSRPPRLPRPRPRPPGAPRP | 0.61 |
| RRIRSRPPRLPRPRPRPPGTPRP | 0.396 |
| RRIRSRPPRLPRPRPRPPHKPRP | 0.173 |
| RRIRSRPPRLPRPRPRPPICPRP | 0.635 |
| RRIRSRPPRLPRPRPRPPIHPRP | -0.329 |
| RRIRSRPPRLPRPRPRPPKSPRP | 0.271 |
| RRIRSRPPRLPRPRPRPPKYPRP | -0.164 |
| RRIRSRPPRLPRPRPRPPLCPRP | 0.357 |
| RRIRSRPPRLPRPRPRPPLFPRP | 0.257 |
| RRIRSRPPRLPRPRPRPPLLPRP | 0.0398 |

| Sequence | shrunken log2 fold change |
| --- | --- |
| RRIRSRPPRLPRPRPRPPMFPRP | 0.0179 |
| RRIRSRPPRLPRPRPRPPMPPRP | 0.486 |
| RRIRSRPPRLPRPRPRPPPSPRP | 0.785 |
| RRIRSRPPRLPRPRPRPPQVPRP | -0.0457 |
| RRIRSRPPRLPRPRPRPPQWPRP | 0.504 |
| RRIRSRPPRLPRPRPRPPSVPRP | 0.279 |
| RRIRSRPPRLPRPRPRPPTNPRP | 0.298 |
| RRIRSRPPRLPRPRPRPPWDPRP | 0.409 |
| RRIRSRPPRLPRPRPRPPWHPRP | 0.0809 |
| RRIRSRPPRLPRPRPRPPWKPRP | -0.0556 |
| RRIRSRPPRLPRPRPRPPYPPRP | 0.0516 |
| RRIRSRPPRLPRPRPRPQAEPRP | -0.0131 |
| RRIRSRPPRLPRPRPRPQAVPRP | 0.197 |
| RRIRSRPPRLPRPRPRPQCDPRP | -0.193 |
| RRIRSRPPRLPRPRPRPQEQPRP | 0.0984 |
| RRIRSRPPRLPRPRPRPQFYPRP | -0.769 |
| RRIRSRPPRLPRPRPRPQIFPRP | 0.0933 |
| RRIRSRPPRLPRPRPRPQIMPRP | 1.11 |
| RRIRSRPPRLPRPRPRPQKDPRP | -0.323 |
| RRIRSRPPRLPRPRPRPQLRPRP | 0.123 |
| RRIRSRPPRLPRPRPRPQMNPRP | -0.227 |
| RRIRSRPPRLPRPRPRPQMWPRP | 0.0996 |
| RRIRSRPPRLPRPRPRPQPSPRP | 0.296 |
| RRIRSRPPRLPRPRPRPQQEPRP | -0.0806 |
| RRIRSRPPRLPRPRPRPQRGPRP | 0.274 |

| Sequence | shrunken log2 fold change |
| --- | --- |
| RRIRSRPPRLPRPRPRPQSEPRP | -0.0306 |
| RRIRSRPPRLPRPRPRPQSGPRP | -0.101 |
| RRIRSRPPRLPRPRPRPQTEPRP | -0.0463 |
| RRIRSRPPRLPRPRPRPQYWPRP | -0.397 |
| RRIRSRPPRLPRPRPRPRAEPRP | 0.492 |
| RRIRSRPPRLPRPRPRPRFDPRP | 0.248 |
| RRIRSRPPRLPRPRPRPRFPPRP | 0.198 |
| RRIRSRPPRLPRPRPRPRGPPRP | 0.568 |
| RRIRSRPPRLPRPRPRPRHGPRP | 0.196 |
| RRIRSRPPRLPRPRPRPRHSPRP | -0.356 |
| RRIRSRPPRLPRPRPRPRIGPRP | 0.395 |
| RRIRSRPPRLPRPRPRPRINPRP | -0.301 |
| RRIRSRPPRLPRPRPRPRKIPRP | 0.12 |
| RRIRSRPPRLPRPRPRPRLTPRP | 0.0483 |
| RRIRSRPPRLPRPRPRPRMSPRP | 0.0167 |
| RRIRSRPPRLPRPRPRPRMTPRP | 0.251 |
| RRIRSRPPRLPRPRPRPRNQPRP | 0.205 |
| RRIRSRPPRLPRPRPRPRNTPRP | -0.411 |
| RRIRSRPPRLPRPRPRPRPMPRP | 0.498 |
| RRIRSRPPRLPRPRPRPRPSPRP | 0.439 |
| RRIRSRPPRLPRPRPRPRRWPRP | 0.556 |
| RRIRSRPPRLPRPRPRPRSDPRP | 0.223 |
| RRIRSRPPRLPRPRPRPRSPPRP | 0.363 |
| RRIRSRPPRLPRPRPRPRWAPRP | 0.158 |
| RRIRSRPPRLPRPRPRPRWHPRP | 0.111 |
